Laboratory results taken from US20180298051A1.

What was measured:
Experiment in all cases: cell-based or functional assay
[1] = molecular target: human LepR on Baf3 LepR cells (human) (UniProt P48357)
[2] = molecular target: C-terminal HA tagged human Leptin receptor on LepR SIE-Bla cells (human) (UniProt P48357)
[3] = molecular target: human FSHR on FSHR CRE-Bla cells (human) (UniProt P23945)
Chain of human FSHR on FSHR CRE-Bla cells (human) (P23945 18-695): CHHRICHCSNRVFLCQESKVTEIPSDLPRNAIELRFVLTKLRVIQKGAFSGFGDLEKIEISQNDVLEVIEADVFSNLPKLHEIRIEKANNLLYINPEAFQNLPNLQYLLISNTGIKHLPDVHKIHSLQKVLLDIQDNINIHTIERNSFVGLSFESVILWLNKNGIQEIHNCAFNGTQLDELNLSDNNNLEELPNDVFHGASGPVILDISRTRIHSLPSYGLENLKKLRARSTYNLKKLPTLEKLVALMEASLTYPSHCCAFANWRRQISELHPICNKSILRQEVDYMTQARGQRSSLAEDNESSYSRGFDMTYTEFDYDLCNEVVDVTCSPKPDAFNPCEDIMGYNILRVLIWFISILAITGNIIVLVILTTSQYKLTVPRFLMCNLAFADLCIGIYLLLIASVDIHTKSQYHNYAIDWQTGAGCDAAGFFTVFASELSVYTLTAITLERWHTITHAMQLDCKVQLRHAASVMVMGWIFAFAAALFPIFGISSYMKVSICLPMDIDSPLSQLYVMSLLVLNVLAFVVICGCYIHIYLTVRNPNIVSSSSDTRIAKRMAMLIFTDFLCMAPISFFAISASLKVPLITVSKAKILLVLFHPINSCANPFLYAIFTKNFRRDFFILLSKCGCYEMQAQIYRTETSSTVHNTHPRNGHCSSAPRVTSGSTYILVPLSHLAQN

Chain of C-terminal HA tagged human Leptin receptor on LepR SIE-Bla cells (human) (P48357 22-1165): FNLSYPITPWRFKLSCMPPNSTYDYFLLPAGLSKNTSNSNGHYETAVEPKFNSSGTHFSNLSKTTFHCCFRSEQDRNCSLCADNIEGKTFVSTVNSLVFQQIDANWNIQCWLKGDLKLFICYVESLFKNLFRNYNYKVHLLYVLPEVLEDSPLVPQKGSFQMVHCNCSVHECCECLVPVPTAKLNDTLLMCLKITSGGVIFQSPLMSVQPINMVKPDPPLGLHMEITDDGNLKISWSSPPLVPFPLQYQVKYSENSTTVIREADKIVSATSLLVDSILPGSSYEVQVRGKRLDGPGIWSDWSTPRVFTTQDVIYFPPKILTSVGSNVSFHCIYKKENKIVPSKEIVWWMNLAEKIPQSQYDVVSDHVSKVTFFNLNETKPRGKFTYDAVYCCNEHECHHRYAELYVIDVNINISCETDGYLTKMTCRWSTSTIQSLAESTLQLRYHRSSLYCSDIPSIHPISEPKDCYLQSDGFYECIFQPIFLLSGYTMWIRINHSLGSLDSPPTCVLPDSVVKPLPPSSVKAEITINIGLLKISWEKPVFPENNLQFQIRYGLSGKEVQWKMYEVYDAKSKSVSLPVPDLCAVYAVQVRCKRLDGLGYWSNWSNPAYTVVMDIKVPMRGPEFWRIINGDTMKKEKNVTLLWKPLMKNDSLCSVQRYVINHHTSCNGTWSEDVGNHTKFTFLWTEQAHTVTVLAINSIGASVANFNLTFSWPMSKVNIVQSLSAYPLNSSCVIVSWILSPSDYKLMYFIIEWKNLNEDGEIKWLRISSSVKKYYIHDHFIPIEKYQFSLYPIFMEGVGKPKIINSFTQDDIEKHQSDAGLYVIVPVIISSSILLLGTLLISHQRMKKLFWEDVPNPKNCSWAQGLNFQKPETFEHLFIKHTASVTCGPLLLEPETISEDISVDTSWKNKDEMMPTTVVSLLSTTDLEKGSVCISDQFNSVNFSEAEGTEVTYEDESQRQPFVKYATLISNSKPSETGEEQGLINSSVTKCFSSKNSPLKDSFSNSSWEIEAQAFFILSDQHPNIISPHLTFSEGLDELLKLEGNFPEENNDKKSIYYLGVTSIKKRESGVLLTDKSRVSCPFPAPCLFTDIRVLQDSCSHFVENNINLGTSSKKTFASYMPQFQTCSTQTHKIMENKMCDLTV
Chain of human LepR on Baf3 LepR cells (human) (P48357 22-1165): as above

| EC50, proliferation assay using the Baf3 LepR cell line [1] [nM] | EC50, FRET assay using the beta-lactamase-based LepR SIE-Bla cell line [2] [nM] | response ratio in a fluorescence resonance energy transfer (FRET) assay, LepR SIE-Bla cells [2] | EC50, FRET assay using the beta-lactamase-based FSHR CRE-Bla cell line [3] [nM] | Substance |
| --- | --- | --- | --- | --- |
| 0.31 | 0.313 | 8.5 | – | recombinant human Leptin protein (from UniProt P41159 22-167) (ligand) |
| – | – | – | 0.0057 | single chain FSH (from UniProt P01225 19-129; P01215 25-116) (ligand) |
